Source: article PMC5433297, “Isoflavone Malonyltransferases GmIMaT1 and GmIMaT3 Differently Modify Isoflavone Glucosides in Soybean (Glycine max) under Various Stresses” (Frontiers in Plant Science, 2017)

B1: GmIMaT3 (Glycine max) (protein)
chain: MAETPTLRIHEVCPISPPQETPSTTIPFTFFDVLWLRLPPVERLFFYSFPNPTTTSSFFDTTILPNLKHSLSLTLHHFPPLAGTITWPLHTPLPLIAYTPGNSIPFRIAESNADFNTLSSNLSEVNNHRRNLIPHLPTSHEEASVLALQLTHFPNQGYSIGITSHHAALDGKSSTLFMKSWAHICSYLNTSPEEPLLFSLPKHLTPSFDRSVIRDPLGIGEIYAKSWTSFGGATNDRSLNVWDTLGGNQTDLVKGLFELTPLDIKKLKKLAESKFVVGDNKKKVRVTSFTVTCAYLLSCAVKAEQPNCERVHFVFNVDCRARLDPPIPETYFGNCVVALLASAKREELLGEEAFFKSVIGISEELNGLEGDVLNGADKWIPKIQSVVSETPRLFSVAGSPRFEVYGIDFGWGRPEKVDVASVNKTGAFSLSESRDHSGGIQIGLALTKNQMEAFSRVFAQGLESLES
notes: full-length ORF (467 residues), His-tagged fusion (pDEST17), E. coli BL21 (DE3), nickel resin, partially purified; cDNA from soybean roots; allele with three amino acid differences from GmMT7 and GmIF7MaT
B2: GmIMaT1 (Glycine max) (protein)
chain: MASHNIKIHDHLRVSPPSATEISLSLTFFDLFWLRFHPVERIFFYTLPTPHSNPSIFYSKLVPKLKTSLSRTLQHFPPLAGNVVWPDNTPNPTVQYTPGDSVSLVVAESEADFNHVLDNSPHKASELRCLVPHLDSSDSHASVVSFQITLFPNRGFSIGISTHHAVLDGKSSTIFIKAWASLCKTYNDDESSESSSPSLAPELKPFFDRTAIKDPSEIGLNFTVNWTEILTKFFPNENSDGRCLKLLPFPPRLEDHVRASFALTGADLEKLRKRVLSKWDIVDRGAESEPPRLSSFVLTCAYALACIAKAIHGVEKEKEKFAFAFTVDCRARLEPPIHDNYFGNCVWGHVVDAEPLDFIKEEAFAIVAKSIHSKIKMILDEGIFHGMESAFSRYESLGKDGVEIMGIAGSNRFGVYGTDFGWGKPAKVEIASVDRALTIGFAESKDGNDGVQVGLVLKKHVMDLFCTLFRQGMLDD
notes: full-length ORF (476 residues), His-tagged fusion (pDEST17), E. coli BL21 (DE3), nickel resin, partially purified; cDNA from soybean roots

Key:
Test in all cases: HPLC malonyltransferase assay, Lineweaver-Burk
Assay type in all cases: biochemical, Glycine max
[1] = substrate: CC(C)(COP(=O)(O)OP(=O)(O)OC[C@H]1O[C@@H](n2cnc3c(N)ncnc32)[C@H](O)[C@@H]1OP(=O)(O)O)[C@@H](O)C(=O)NCCC(=O)NCCSC(=O)CC(=O)O; settings: 60 μM genistin as acceptor, 20 mM potassium phosphate pH 7.2, 30°C
From the text: (§1) HPLC malonyltransferase assay, Lineweaver-Burk on GmIMaT3

[2] = substrate: O=c1c(-c2ccc(O)cc2)coc2cc(O[C@@H]3O[C@H](CO)[C@@H](O)[C@H](O)[C@H]3O)ccc12; settings: 40 μM malonyl-CoA, 20 mM potassium phosphate pH 7.2, 30°C
From the text: as §1

[3] = substrate: COc1cc2c(=O)c(-c3ccc(O)cc3)coc2cc1O[C@@H]1O[C@H](CO)[C@@H](O)[C@H](O)[C@H]1O; settings: 40 μM malonyl-CoA, 20 mM potassium phosphate pH 7.2, 30°C
From the text: as §1

[4] = substrate: O=c1c(-c2ccc(O)cc2)coc2cc(O[C@@H]3O[C@H](CO)[C@@H](O)[C@H](O)[C@H]3O)cc(O)c12; settings: 40 μM malonyl-CoA, 20 mM potassium phosphate pH 7.2, 30°C
From the text: as §1

[5] = substrate: CC(C)(COP(=O)(O)OP(=O)(O)OC[C@H]1O[C@@H](n2cnc3c(N)ncnc32)[C@H](O)[C@@H]1OP(=O)(O)O)[C@@H](O)C(=O)NCCC(=O)NCCSC(=O)CC(=O)O; settings: 60 μM genistin as acceptor, 20 mM potassium phosphate pH 7.2, 30°C; remark: listed apart in the source
From the text: (§2) HPLC malonyltransferase assay, Lineweaver-Burk on GmIMaT1

[6] = substrate: O=c1c(-c2ccc(O)cc2)coc2cc(O[C@@H]3O[C@H](CO)[C@@H](O)[C@H](O)[C@H]3O)ccc12; settings: 40 μM malonyl-CoA, 20 mM potassium phosphate pH 7.2, 30°C; remark: listed apart in the source
From the text: as §2

[7] = substrate: COc1cc2c(=O)c(-c3ccc(O)cc3)coc2cc1O[C@@H]1O[C@H](CO)[C@@H](O)[C@H](O)[C@H]1O; settings: 40 μM malonyl-CoA, 20 mM potassium phosphate pH 7.2, 30°C; remark: listed apart in the source
From the text: as §2

[8] = substrate: O=c1c(-c2ccc(O)cc2)coc2cc(O[C@@H]3O[C@H](CO)[C@@H](O)[C@H](O)[C@H]3O)cc(O)c12; settings: 40 μM malonyl-CoA, 20 mM potassium phosphate pH 7.2, 30°C; remark: listed apart in the source
From the text: as §2

Row | Protein | Km [1] [µM] | kcat/Km [1] [M⁻¹ s⁻¹] | Km [2] [µM] | kcat/Km [2] [M⁻¹ s⁻¹] | Km [3] [µM] | kcat/Km [3] [M⁻¹ s⁻¹] | Km [4] [µM] | kcat/Km [4] [M⁻¹ s⁻¹] | Km [5] [µM] | kcat/Km [5] [M⁻¹ s⁻¹] | Km [6] [µM] | kcat/Km [6] [M⁻¹ s⁻¹] | Km [7] [µM] | kcat/Km [7] [M⁻¹ s⁻¹] | Km [8] [µM] | kcat/Km [8] [M⁻¹ s⁻¹]
1 | B1 | 25.59 ± 2.2 | 750000 ± 120000 | 30.12 ± 2.6 | 1.15e+06 ± 120000 | 12.94 ± 1.3 | 5.61e+06 ± 1.25e+06 | 26.67 ± 0.86 | 1.54e+06 ± 140000 | – | – | – | – | – | – | – | –
2 | B2 | – | – | – | – | – | – | – | – | 18.30 ± 1.2 | 440000 ± 70000 | 36.28 ± 3.2 | 820000 ± 10000 | 13.11 ± 0.92 | 5.21e+06 ± 140000 | 23.04 ± 1.5 | 2.47e+06 ± 100000
